According to paper PMC6954424:

Target: mouse IgG (on magnet beads) (mouse)
Test: pull-down; DNA-barcoded HaloTag protein G (93 nM by qPCR) mixed with mouse IgG magnet beads in PBS-NP40, 4°C, 2 h; three washes; bound barcode quantified by qPCR

“DNA-barcoded HaloTag protein G (from UniProt P06654 34-417) (natural protein)” showed a fold signal (qPCR of the barcode) over the negative control barcoded GST with IgG of 1000 fold.
